In the supplement of paper PMC10065799, “High-throughput profiling of sequence recognition by tyrosine kinases and SH2 domains using bacterial peptide display” (eLife, 2023):

What was measured:
Grb2 SH2 = Grb2 SH2 (UniProt P62993); test: SH2 binding enrichment of the phosphorylated peptide, bacterial display (enrichment ratio); higher = better substrate or ligand; peptides without Tyr show the background
SHP2-C SH2 = test: as above
c-Src SH2 = test: as above
c-Abl (mouse) = test: phosphorylation enrichment, bacterial display (enrichment ratio); higher = better substrate or ligand; peptides without Tyr show the background
c-Src = test: as above
Fyn = Fyn (UniProt P06241); test: as above
Hck = Hck (UniProt P08631); test: as above
Jak2 = Jak2 (UniProt O60674); test: as above
EPHB1 = EPHB1 (UniProt P54762); test: as above
MERTK = MERTK (UniProt Q12866); test: as above
Fes = Fes (UniProt P07332); test: as above
AncSZ = test: as above
FGFR1 = FGFR1 (UniProt P11362); test: as above
FGFR3 = FGFR3 (UniProt P22607); test: as above
EPHB2 = EPHB2 (UniProt P29323); test: as above
Fer (mouse) = test: as above
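Wherever SH2 binding enrichment of the phosphorylated peptide, bacterial display is given: peptide library displayed on the E. coli surface as eCPX fusions, selected cells deep-sequenced, score is each peptide's frequency after selection divided by its frequency in the input.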
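Wherever phosphorylation enrichment, bacterial display is given: 11-residue human phosphosite peptides and single-mutation variants displayed on the E. coli surface, counted by deep sequencing, each peptide's frequency after selection divided by its frequency in the unselected input library; frequency after pTyr selection over input frequency; kinase dosed for 20-30% of maximal phosphorylation in three min.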

Chain of Fyn (P06241 whole entry, looked up): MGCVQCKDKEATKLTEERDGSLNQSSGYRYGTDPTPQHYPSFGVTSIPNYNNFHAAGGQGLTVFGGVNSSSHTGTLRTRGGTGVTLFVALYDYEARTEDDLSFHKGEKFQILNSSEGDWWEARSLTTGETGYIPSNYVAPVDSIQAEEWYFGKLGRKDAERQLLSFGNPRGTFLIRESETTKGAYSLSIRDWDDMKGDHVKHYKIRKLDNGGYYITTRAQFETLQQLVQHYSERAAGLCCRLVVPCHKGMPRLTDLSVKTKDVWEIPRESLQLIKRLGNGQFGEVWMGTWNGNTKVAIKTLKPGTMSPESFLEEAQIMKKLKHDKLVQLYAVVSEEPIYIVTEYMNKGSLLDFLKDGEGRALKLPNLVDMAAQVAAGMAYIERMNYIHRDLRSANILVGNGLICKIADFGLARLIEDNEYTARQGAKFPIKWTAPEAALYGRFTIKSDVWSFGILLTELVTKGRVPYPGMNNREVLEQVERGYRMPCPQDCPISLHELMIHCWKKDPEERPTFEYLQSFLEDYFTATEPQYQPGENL
Chain of Fes (P07332 whole entry, looked up): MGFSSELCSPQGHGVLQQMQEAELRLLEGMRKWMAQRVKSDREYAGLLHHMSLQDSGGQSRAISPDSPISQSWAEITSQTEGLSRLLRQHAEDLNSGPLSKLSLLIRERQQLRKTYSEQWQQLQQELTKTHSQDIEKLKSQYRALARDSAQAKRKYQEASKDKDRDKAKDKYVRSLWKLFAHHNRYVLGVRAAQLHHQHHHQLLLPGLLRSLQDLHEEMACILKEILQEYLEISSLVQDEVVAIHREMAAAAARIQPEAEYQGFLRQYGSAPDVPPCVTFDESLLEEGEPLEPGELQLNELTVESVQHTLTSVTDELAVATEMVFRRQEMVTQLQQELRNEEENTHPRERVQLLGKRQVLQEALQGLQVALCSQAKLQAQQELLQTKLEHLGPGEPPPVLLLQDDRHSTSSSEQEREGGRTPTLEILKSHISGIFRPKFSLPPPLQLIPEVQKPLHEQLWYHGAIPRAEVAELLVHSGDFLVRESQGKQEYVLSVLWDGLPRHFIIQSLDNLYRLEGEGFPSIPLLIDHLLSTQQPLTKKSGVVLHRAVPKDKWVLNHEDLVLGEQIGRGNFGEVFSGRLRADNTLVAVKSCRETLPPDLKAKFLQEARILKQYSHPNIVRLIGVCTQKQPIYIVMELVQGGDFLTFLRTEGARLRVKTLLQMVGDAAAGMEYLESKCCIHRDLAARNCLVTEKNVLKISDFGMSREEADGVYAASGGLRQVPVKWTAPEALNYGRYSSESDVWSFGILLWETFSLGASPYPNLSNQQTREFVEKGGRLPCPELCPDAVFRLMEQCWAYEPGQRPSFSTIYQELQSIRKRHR
Chain of Hck (P08631 whole entry, looked up): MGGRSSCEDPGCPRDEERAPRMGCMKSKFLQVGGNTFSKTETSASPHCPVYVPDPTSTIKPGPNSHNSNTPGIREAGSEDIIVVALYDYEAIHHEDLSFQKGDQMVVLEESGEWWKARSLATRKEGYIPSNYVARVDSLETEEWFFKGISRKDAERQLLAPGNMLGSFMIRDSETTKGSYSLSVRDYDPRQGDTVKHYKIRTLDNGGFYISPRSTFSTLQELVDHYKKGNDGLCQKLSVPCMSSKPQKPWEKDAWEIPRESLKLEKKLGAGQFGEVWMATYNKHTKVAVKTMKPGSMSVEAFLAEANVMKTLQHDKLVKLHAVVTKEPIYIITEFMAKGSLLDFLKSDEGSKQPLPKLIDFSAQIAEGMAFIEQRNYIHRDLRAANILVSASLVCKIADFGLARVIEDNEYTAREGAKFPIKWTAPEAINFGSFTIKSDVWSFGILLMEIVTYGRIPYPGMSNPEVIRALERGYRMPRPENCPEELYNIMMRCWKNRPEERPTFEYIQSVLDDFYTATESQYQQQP
Chain of EPHB1 (P54762 whole entry, looked up): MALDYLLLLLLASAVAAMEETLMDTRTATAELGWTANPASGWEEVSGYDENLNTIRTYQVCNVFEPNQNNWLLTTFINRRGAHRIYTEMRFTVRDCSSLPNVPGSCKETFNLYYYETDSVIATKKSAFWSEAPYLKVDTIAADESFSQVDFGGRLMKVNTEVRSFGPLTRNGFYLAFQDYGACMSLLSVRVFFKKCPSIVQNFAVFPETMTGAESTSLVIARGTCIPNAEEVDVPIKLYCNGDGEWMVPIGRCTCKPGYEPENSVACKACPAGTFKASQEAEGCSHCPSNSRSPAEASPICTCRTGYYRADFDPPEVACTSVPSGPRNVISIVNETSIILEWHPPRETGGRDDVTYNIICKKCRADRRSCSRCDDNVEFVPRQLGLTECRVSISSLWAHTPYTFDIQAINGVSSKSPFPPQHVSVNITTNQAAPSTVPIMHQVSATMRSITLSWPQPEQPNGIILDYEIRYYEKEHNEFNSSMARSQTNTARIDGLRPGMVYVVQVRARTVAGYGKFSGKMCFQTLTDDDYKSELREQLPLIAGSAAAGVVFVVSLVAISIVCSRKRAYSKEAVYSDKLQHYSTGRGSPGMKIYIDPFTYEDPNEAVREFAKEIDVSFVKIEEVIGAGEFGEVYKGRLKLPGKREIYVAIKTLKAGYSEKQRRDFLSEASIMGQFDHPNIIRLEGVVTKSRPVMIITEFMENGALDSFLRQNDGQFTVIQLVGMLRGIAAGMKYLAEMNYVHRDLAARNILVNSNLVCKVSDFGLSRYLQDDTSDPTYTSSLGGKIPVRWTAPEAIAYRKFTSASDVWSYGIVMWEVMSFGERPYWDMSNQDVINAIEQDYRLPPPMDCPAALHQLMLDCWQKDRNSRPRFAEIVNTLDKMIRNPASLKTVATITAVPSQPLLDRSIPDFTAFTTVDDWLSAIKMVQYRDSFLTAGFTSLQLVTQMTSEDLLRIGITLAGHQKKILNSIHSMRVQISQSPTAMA
Chain of EPHB2 (P29323 whole entry, looked up): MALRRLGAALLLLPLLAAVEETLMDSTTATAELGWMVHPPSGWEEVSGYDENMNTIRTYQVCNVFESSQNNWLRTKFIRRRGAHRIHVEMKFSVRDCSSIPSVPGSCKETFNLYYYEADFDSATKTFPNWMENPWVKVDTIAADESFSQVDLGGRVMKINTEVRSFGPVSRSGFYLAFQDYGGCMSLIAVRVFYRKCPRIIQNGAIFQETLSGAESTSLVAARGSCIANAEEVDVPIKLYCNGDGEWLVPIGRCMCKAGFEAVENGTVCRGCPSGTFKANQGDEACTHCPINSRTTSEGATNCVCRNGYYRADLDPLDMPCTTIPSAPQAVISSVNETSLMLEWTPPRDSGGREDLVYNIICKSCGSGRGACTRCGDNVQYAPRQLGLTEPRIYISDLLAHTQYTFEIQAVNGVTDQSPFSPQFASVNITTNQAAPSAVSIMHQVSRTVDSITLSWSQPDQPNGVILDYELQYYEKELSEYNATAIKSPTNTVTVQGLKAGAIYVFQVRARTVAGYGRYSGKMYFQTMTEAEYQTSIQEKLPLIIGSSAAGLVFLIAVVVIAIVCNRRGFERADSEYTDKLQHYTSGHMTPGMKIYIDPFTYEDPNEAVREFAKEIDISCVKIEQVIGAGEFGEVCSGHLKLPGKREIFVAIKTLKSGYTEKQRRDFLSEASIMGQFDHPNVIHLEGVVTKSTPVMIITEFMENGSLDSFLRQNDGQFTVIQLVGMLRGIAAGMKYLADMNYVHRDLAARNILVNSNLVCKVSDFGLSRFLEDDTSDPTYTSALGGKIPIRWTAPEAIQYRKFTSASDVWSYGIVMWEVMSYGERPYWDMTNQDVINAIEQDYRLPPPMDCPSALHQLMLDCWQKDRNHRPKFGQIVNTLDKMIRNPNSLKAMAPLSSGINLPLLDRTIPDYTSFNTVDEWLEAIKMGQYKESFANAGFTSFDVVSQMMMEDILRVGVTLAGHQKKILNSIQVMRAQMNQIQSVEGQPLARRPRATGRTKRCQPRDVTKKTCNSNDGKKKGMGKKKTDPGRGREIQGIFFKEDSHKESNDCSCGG
Chain of Jak2 (O60674 whole entry, looked up): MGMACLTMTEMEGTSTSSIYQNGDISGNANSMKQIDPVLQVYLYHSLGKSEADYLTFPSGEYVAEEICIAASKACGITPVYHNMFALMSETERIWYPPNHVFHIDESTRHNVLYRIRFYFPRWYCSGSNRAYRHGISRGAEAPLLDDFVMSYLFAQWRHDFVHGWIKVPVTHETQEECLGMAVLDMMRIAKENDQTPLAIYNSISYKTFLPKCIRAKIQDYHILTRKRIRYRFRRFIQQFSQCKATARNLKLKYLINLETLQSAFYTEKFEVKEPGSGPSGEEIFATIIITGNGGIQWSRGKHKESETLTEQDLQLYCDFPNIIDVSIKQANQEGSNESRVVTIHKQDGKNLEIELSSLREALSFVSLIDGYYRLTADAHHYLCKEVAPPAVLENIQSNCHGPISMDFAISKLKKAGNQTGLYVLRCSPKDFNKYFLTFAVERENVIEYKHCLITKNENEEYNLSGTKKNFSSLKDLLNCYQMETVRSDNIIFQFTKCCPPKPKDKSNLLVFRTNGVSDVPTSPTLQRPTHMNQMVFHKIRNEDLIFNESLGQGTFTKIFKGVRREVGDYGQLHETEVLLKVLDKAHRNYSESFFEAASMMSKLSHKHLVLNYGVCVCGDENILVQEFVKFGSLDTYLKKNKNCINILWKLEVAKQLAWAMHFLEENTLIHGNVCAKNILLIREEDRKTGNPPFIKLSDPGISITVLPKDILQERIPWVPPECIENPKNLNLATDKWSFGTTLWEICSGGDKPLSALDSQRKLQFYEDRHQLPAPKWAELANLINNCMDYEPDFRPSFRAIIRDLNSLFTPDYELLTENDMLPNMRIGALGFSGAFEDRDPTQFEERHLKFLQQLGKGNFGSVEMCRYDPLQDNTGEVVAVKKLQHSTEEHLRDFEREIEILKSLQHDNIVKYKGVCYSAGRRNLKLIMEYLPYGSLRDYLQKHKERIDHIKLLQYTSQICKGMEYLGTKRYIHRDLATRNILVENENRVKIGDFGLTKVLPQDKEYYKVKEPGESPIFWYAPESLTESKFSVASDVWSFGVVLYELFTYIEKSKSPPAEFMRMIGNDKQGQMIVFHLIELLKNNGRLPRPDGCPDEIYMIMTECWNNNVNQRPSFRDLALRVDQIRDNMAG

SH2 binding enrichment (Grb2 SH2) | SH2 binding enrichment (SHP2-C SH2) | SH2 binding enrichment (c-Src SH2) | Sequence | phosphorylation enrichment (c-Abl (mouse)) | phosphorylation enrichment (c-Src) | phosphorylation enrichment (Fyn) | phosphorylation enrichment (Hck) | phosphorylation enrichment (Jak2) | phosphorylation enrichment (EPHB1) | phosphorylation enrichment (MERTK) | phosphorylation enrichment (Fes) | phosphorylation enrichment (AncSZ) | phosphorylation enrichment (FGFR1) | phosphorylation enrichment (FGFR3) | phosphorylation enrichment (EPHB2) | phosphorylation enrichment (Fer (mouse))
14.4 | 0.84 | 0.964 | QADVTYVNTQL [MERTK_Y872_I871T] | 1.11 | 0.682 | 0.518 | 0.518 | 0.703 | 0.717 | 0.522 | 0.942 | 1.11 | 0.504 | 0.606 | 0.584 | 0.714
0.965 | 0.594 | 0.622 | ATRKAYGQALA [TKT_Y321] | 0.415 | 0.366 | 0.335 | 0.412 | 0.481 | 0.31 | 0.432 | 0.612 | 0.468 | 0.391 | 0.395 | 0.348 | 0.36
0.749 | 0.716 | 0.482 | RSLLQYGGSAN [ANK1_Y624] | 1.01 | 0.459 | 0.537 | 0.813 | 0.626 | 0.709 | 0.439 | 0.857 | 0.964 | 0.574 | 0.772 | 0.717 | 0.8
0.999 | 0.716 | 0.785 | IVRSLYKDLED [VHL_Y185_E186K] | 0.691 | 0.445 | 0.535 | 0.479 | 0.877 | 0.497 | 0.496 | 1.19 | 1.25 | 0.502 | 0.688 | 0.559 | 0.688
1.67 | 3.94 | 2.87 | RSPLRYTSILT [OR51B6_Y130] | 0.632 | 0.392 | 0.64 | 0.443 | 0.655 | 0.426 | 0.392 | 0.843 | 0.679 | 0.536 | 0.431 | 0.532 | 0.492
0.607 | 0.411 | 0.341 | ALAPKYHGGGG [HBB_Y146_H144P] | 0.423 | 0.389 | 0.31 | 0.348 | 0.423 | 0.315 | 0.386 | 0.506 | 0.314 | 0.327 | 0.248 | 0.356 | 0.332
0.804 | 0.704 | 0.541 | CCNHPYLINGA [CHD7_Y1256] | 0.538 | 2.72 | 0.57 | 0.519 | 0.641 | 0.352 | 0.461 | 0.851 | 0.651 | 0.443 | 0.552 | 0.495 | 0.419
1.12 | 0.717 | 0.429 | PLDGEYFTHQI [TP53_Y327_L330H] | 1.5 | 1.61 | 1.99 | 1.65 | 0.99 | 0.932 | 0.656 | 1.43 | 4.62 | 2.17 | 1.55 | 1.15 | 1.08
0.778 | 1.21 | 2.15 | AEDKPYAELWM [MPI_Y46] | 0.854 | 3.47 | 2.27 | 1.44 | 1.09 | 0.868 | 1.4 | 1.34 | 1.38 | 1.45 | 1.34 | 0.729 | 10.8
0.949 | 0.74 | 0.477 | AGTILYHAHLD [ASS1_Y291] | 0.509 | 0.451 | 0.479 | 0.523 | 0.495 | 0.526 | 0.561 | 0.703 | 0.591 | 0.535 | 0.497 | 0.78 | 0.398
0.645 | 0.851 | 0.495 | GPIIRYDLGGA [CYP11B1_Y81_F79I] | 0.518 | 0.405 | 0.412 | 0.384 | 0.626 | 0.585 | 0.477 | 0.723 | 0.648 | 0.617 | 0.498 | 0.366 | 0.396
0.797 | 3.2 | 8.8 | LTELGYSFVTT [ACTA1_Y200_R198L] | 1.51 | 1.11 | 1.88 | 1.9 | 1.93 | 1.44 | 1.12 | 3.61 | 3.14 | 5.04 | 3.42 | 1.46 | 2.05
0.847 | 0.599 | 0.469 | IGLHAYGDQYR [IDH1_Y135_R132L] | 0.561 | 0.473 | 0.498 | 0.529 | 0.563 | 0.469 | 0.426 | 0.834 | 0.681 | 0.46 | 0.598 | 0.487 | 0.48
0.865 | 1.48 | 0.823 | QQLVAYYSKHT [SRC_Y232_A237T] | 0.906 | 0.591 | 0.889 | 0.653 | 0.932 | 1.42 | 0.629 | 0.951 | 1.13 | 0.818 | 0.926 | 0.92 | 0.42
0.7 | 0.464 | 0.531 | DLDTEYGSGYP [RNASEH2A_Y206_D205E] | 0.727 | 0.549 | 0.49 | 0.546 | 1.17 | 0.652 | 0.379 | 1.01 | 1.23 | 0.507 | 0.652 | 0.542 | 0.505
0.757 | 0.809 | 0.545 | ANFTEYVATSW [CDKL5_Y171_R175S_YF] | 0.892 | 0.578 | 0.555 | 0.511 | 0.974 | 0.841 | 0.512 | 1.03 | 0.983 | 1.03 | 0.983 | 0.988 | 0.505
